Measured values taken from patent US20200276322A1 (ADMINISTRATORS OF THE TULANE EDUCATIONAL FUND, published 2020).
Square brackets hold non-standard residues; d marks the D form. Ends that are not written are not given here.

Target: GFP1-10 protein
Test: cell-based or functional assay

Binder	split GFP assay, GFP fluorescence over background, 10 µM, 22 °C [fold]	split GFP assay, GFP fluorescence over background, 10 µM, 37 °C [fold]	split GFP assay, GFP fluorescence against Tat-GFP-11, 40 µM, 37 °C and 22 °C [fold]
[dR][dK][dK][dR][dW][dF][dR][dR][dR][dR][dP][dK][dW][dK][dK]RDHMVLHEYVNAAGIT [CPP-1(D)-GFP-11]	2.2	2.1	
G[dR][dK][dK][dR][dR][dQ][dR][dR][dR][dP][dP][dQ]RDHMVLHEYVNAAGIT [Tat(D)-GFP-11]			2
